# From the nanobody polyreactivity screen of Harvey et al. (2022)
# Experiment: yeast display, Sf9 membrane polyspecificity reagent, FACS + sequencing; frameworks hold sequencing errors
# Outline: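 Polyreactivity labels are assigned by the sorting gate from which each nanobody was recovered. The gates were low and high (top ~1%), set on anti-HA fluorescence for expression and streptavidin fluorescence for reagent binding. Before sorting, galactose-induced (36–48 hours) yeast display cells were stained for 1 hour at 4 °C with 10% biotinylated, detergent-solubilized Sf9 membrane reagent.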
row,Sequence,polyreactivity (PSR sort gate)
1,QVQLVESGGGLVQAGGSLRLSCAASGRIYWLYAMGWYRQAPGKERELVAAITGIGGSTYYADSVKVRFTISRDNAKNTVYLQMNSLKPEDTAVYYCAARNPASTAWMNYWGQGTQVNVSS,low polyreactivity
2,QVQLVESGGGLVQAGGSLRLSCAASGRLFKIYAMGWYRQAPGKERELVATISSGGRTNYADSVKGRFTISRDNAKNTVYLQMNSLKPEDTAVYYCNAGARVLYETESFDYWGQGIQVTVSS,low polyreactivity
3,QVQLVESGGGLVQAGGSLRLSCAASGRMFHIYAMGWYRQAPGKERELVAGITTSGGSTYYADSVKGRFTISRDNAKNTVYLQMNSLKPEDTSVDYCARDGLWWCGLTKRWWEFYYWGQGTQVTVSS,low polyreactivity
4,QVQLVESGGGLVQAGGSLRLSCAASGRMFYYYVMGWYRQAPGKESELVAVIDWSGGSTYYADSLKGRFTISRDTAKNTVYLQMNSLKPEDTAVYYCARVPYGNPNGNTPYGDNRYNSWGQGTQVTVSS,low polyreactivity
5,QVQLVESGGGLVQAGGSLRLSCAASGRNFDWYAMGWYRQAPGKERELVAAISTSGANTYYADSVKGRFTISRDNAKNTVYLQMNSLKPEDTAVYYCATDPYQPYEGDYWGQGTLVTVSS,low polyreactivity
6,QVQLVESGGGLVQAGGSLRLSCAASGRNFDYYTMGWYRQAPGKERELVARIRRSAGTTYYADSVKGRFTISRDNAKNPVYCQMNSLIPEDTAVYYCNVVPYFKYGYWGQGTQVTGSS,low polyreactivity
7,QVQLVESGGGLVQAGGSLRLSCAASGRNFFTYAMGWYRQAPGKERELVAAIDRSGTSTNYADSVKGRFTISRDNANNTVYLHMHSLKPEDTAVYYCAARPNPYYDEMDYWGQGTQVTVSS,low polyreactivity
8,QVQLVESGGGLVQAGGSLRLSCAASGRNFGLNAMGWYRQAPGKERELVAAIDQGDGITYYADSVKGRFTISRDNAKNTVYLQMNSLKTEDTAVYYCAAEVSYKEIYQYYWIYPAYNYWGQGTQVTVSS,high polyreactivity
9,QVQLVESGGGLVQAGGSLRLSCAASGRNFGYYVMGWYRQAPGKERELVAAIRSSADSTYYADSVKGRFTISRDNAKNTVYLQMNSLKPEDTAVYYCAAQSPAYYTKCYWGQGTQVTVSS,low polyreactivity
10,QVQLVESGGGLVQAGGSLRLSCAASGRNFHRYAMGWYRQAPGKERELVATIRSGGGTYYADSVKGRFTISRDNAKNTVYLQMNSLKPEDTAVYDCNAQSSYSYFSGYDYWGQGTQVTVSS,low polyreactivity
11,QVQLVESGGGLVQAGGSLRLSCAASGRNFKYYAMGWYRPAPGKERELVAAISWSGGSTYYADSVKGRFTISRDNAKNTVYLQMNSLKPEDTAVYYCATYGGLTKFRLAYDYWGQGTQVTVSS,high polyreactivity
12,QVQLVESGGGLVQAGGSLRLSCAASGRNFPVNAMGWYRQAPGKERELVAAISTTGARTYYADSVKGRFTISRDNAKNTVYLQMNSLKPEDTAVYYCAAKQFSVTLSNYWGQGTQVTVSS,low polyreactivity
13,QVQLVESGGGLVQAGGSLRLSCAASGRNFRVNAMGWYTQAPGKERELVAAISWIGGRTYYADSVKGRFTISRDNAKNTVYLQMNSLKPEDTAVYYCAAGTRRYYYWKYDYWGQGTQVTVSS,high polyreactivity
14,QVQLVESGGGLVQAGGSLRLSCAASGRNFTDNDMGWYIQAPGKEMDLVAGINWSSGSTYYADSVKGRFTISRDNAKNTVYLQMNSLKTEDTAVYYCNALGYWRSTVHFVVGEVDYWGQGTQVTLSS,low polyreactivity
15,QVQLVESGGGLVQAGGSLRLSCAASGRNFTRNAMGWYRQAPGKEREFVAAISWSGGSTYYADSVKGRFTLSRDNAKNTVYVQMNSLKPEDTAVYYCAAKNCGGYVSWYDYWGQGTQVTVSS,low polyreactivity
16,QVQLVESGGGLVQAGGSLRLSCAASGRNFVAYTMGWSRQAPGKERELVAAIRIIGGSTYYADSVKGRFTISRDNAKNTVYLQMNSLKPVDTAVYFCDTPYAYPGTVQYAGYNYWGQGTQVTVSS,high polyreactivity

row,Sequence,polyreactivity (PSR sort gate)
1,QVQLVESGGGLVQAGGSLRLSCAASGRNFYGNAMGWYRQAPGKERELVAAISSGTSTNYADSVKGRFTISRDNAKNTVYLQMNSLKPEDTAVYYCAAGSYSRYLYSLYFDFDYWGQGTQVTVSS,low polyreactivity
2,QVQLVESGGGLVQAGGSLRLSCAASGRNFYVYAMGWYRQAPGKEREFVASITVSGSSTYYADSVKGRFTISRDNAKNTVYLQMNSLKPEDTAVYYCNTDAVRSYVWWGTSLYDYWGQGTLVTVSS,low polyreactivity
3,QVQLVESGGGLVQAGGSLRLSCAASGRNFYYNAMGWYRQAPGKEREFVAGISYGGTTTYYADSVKGRFTISRDNAKNTVYLLMNSLKPEDTAVYYCAAGYTWRQSWYPFDYWGQGTQVTVSS,high polyreactivity
4,QVQLVESGGGLVQAGGSLRLSCAASGRNIWGYTMGWYRQAPGKERDLVAAIRFTSGSTYYADSVKGRFTISRDNAKNSVYLQMNSLKPEDTAVYYCATPYVQTGSGYTGVYWGQGTQVTVSS,high polyreactivity
5,QVQLVESGGGLVQAGGSLRLSCAASGRNLQQYVMGWYRQAPGKERELVAAITRGGRTNYADSVKGRFTISRDYAKNTVYLLMNSLKQEDTAVYYCKTRYPSRVVAWLDYWGQGTQVNVSS,low polyreactivity
6,QVQLVESGGGLVQAGGSLRLSCAASGRNYGNAMGWYRQAPGKERELVAAISAGGGRTYYADSVKGRFTISRDNAKNTVYLQMNSLKPEDTAVYYCAADTTLQAFIRYRPIGSYDSWGQGTQVTVSS,low polyreactivity
7,QVQLVESGGGLVQAGGSLRLSCAASGRNYWVYAMGWYREAPGKERELVASIDSGSRTTYADSVKGRFTISRDNAKNTVYLQMISLKQEDTAVYYSATSSYTYSPRVWYRWRRDYWGQGTQVNVSS,high polyreactivity
8,QVQLVESGGGLVQAGGSLRLSCAASGRPFKPYAMGWYRPAPGKERELVAVISSTGSTKYADSVKGRFTISRDNAKNTVYLQMNSLKPEDTAVYYCNAGSLYSDRWVKRKYDYSGQGTQVTVSS,high polyreactivity
9,QVQLVESGGGLVQAGGSLRLSCAASGRPFYKNTMGWYRQAPGKEREFVATISASGGSTYYADSVKGRFSSSRDNATNTVYLQMNSLKPEDTAVYYCAKRDYAGYAVHIGGDMNYWGQGTQVTVSS,low polyreactivity
10,QVQLVESGGGLVQAGGSLRLSCAASGRPLGQNVMGWYRQAPGKERELVAASSSNTAGNTYYADSVKGRFTISRDNAKNTVYLQMNSLKAEDTAVYYCAKVDSFEAKLDYWGQGTQVTVSS,low polyreactivity
11,QVQLVESGGGLVQAGGSLRLSCAASGRPSLLMLWDGIDRRLGKKGSWLPLLTLVTPTTYADSVKGRFTISRDNAKNTVYLQMNSLKPEDTAVYYCNADFRPLDHYVNWYYYWGQGTQVTVSS,low polyreactivity
12,QVQLVESGGGLVQAGGSLRLSCAASGRSFCSYAMGWYRHAPGKERELVAAITSGGSTNYADSVKGRFTISRDNAKNTVYLQMNSLKPEVTAVYYCAAVEYLRESDYWGQGTQVTVSS,low polyreactivity
13,QVQLVESGGGLVQAGGSLRLSCAASGRSFCYNAMGWYSQAPGKERELVAGISSSGGTTYYADSVKGRFTISRDKAKNTVYLQMNSLKPEDTAVYYCAKRFSLLSTVRWGRYNYWGQGTQVTVSS,high polyreactivity
14,QVQLVESGGGLVQAGGSLRLSCAASGRSFDRYAMGWYRQAPGKERELVAGITASGGSTYYADSVKGRFTISRDNAKNTVYLQMNSLKPEDTAVYYCAVVYGYRYYYWGQGTQVTVSS,high polyreactivity
15,QVQLVESGGGLVQAGGSLRLSCAASGRSFGLYAMGWYRQAPGKERELVAAISYSGGRTYYADSVKRRFTLSRDNAKKTVYLQRNILKPEDTGVYYCNKAWFPYYYYRFDYWGQGTQVTVSS,high polyreactivity
